Data published in patent US20260109776A1 (Amgen, published 2026).

Molecular target: human CD40 on cells (human, UniProt P25942 21-277)
Test: cell-based or functional assay

- CD40L EC50, human B cell proliferation, no antibody: 1.08 ng/mL
- CD40L EC50, human B cell proliferation, with 1 ug/ml 4G7: 1.04 ng/mL
- CD40L EC50, human B cell proliferation, with 1 ug/ml 29H10: 0.715 ng/mL
- CD40L EC50, human B cell proliferation, with 1 ug/ml 30A12: 0.81 ng/mL
- CD40L EC50, human B cell proliferation, with 1 ug/ml 33H6: 1.14 ng/mL
- CD40L EC50, human B cell proliferation, with 1 ug/ml 35F11: 6.66 ng/mL
- CD40L EC50, human B cell proliferation, with 1 ug/ml 36F3: 13 ng/mL
- CD40L EC50, human B cell proliferation, with 1 ug/ml 37A6: 1.39 ng/mL
- CD40L EC50, human B cell proliferation, with 1 ug/ml 39C2: 0.985 ng/mL
B1: soluble human CD40L (ligand, UniProt P29965 113-261, looked up)
chain: MQKGDQNPQIAAHVISEASSKTTSVLQWAEKGYYTMSNNLVTLENGKQLTVKRQGLYYIYAQVTFCSNREASSQAPFIASLCLKSPGRFERILLRAANTHSSAKPCGQQSIHLGGVFELQPGASVFVNVTDPSQVSHGTGFTSFGLLKL
modifications: fluorescent label in the ligand binding assay of Table 7
